{"source": "patent JP2007300927A", "about": "(dated 2007)", "binders": {"B1": {"name": "GC179 (antibody, V domains shown)", "VH": "EVQLVETGGGLVQPEGSLKLSCAASGFSFNINAMNWVRQAPGKGLEWVARIRSESNNYATYYGDSVKDRFTISRDDSQNMLYLQMNNLKTEDTAIYYCVREVTTSFAYWGQGTLVTVSA", "VL": "DIVMTQSAPSVPVTPGESVSISCKSSKSLLHSNGNTYLNWFLQRPGQSPQLLIYWMSNLASGVPDRFSGSGSGTAFTLRISRVEAEDVGVYYCMQHIEYPFTFGTGTKLEIK", "notes": "Mouse hybridoma antibody from GC-3 immunisation"}, "B2": {"name": "L9G11 (antibody, V domains shown)", "VH": "QVQLQQPGAELVKPGASVKLSCKASGYTFTSYWMHWVKQRPGQGLEWIGTIDPSDSETHYNLQFKDTATLTVDKSSSTAYMQLSSLTSEDSAVYYCIRGAFYSSYSYWAWFAYWGQGTLVTVSA", "VL": "DIVLTQSPTSLAVSLGQSVTISCRASESVEYYGTSLMQWYQQKPGQPPKLLIYGASNVESGVPARFSGSGSGTDFSLNIHPVEEDDIAMYFCQQSRKVPYTFGSGTKLEIK", "notes": "Mouse hybridoma antibody"}, "B3": {"name": "ヒト化GC33 H鎖ver.j / L鎖ver.a (antibody, human IgG1, V domains shown)", "VH": "QVQLVQSGAEVKKPGASVKVSCKASGYTFTDYEMHWVRQAPGQGLEWMGALDPKTGDTAYSQKFKGRVTLTADKSTSTAYMELSSLRSEDTAVYYCTRFYSYTYWGQGTLVTVSS", "VL": "DVVMTQSPLSLPVTPGEPASISCRSSQSLVHSNGNTYLHWYLQKPGQSPQLLIYKVSNRFSGVPDRFSGSGSGTDFTLKISRVEAEDVGVYYCSQNTHVPPTFGQGTKLEIK", "notes": "Human IgG1 / κ constant regions; also called GC33 VH ver.j"}, "B4": {"name": "GC33 ver.a / mouse (antibody, human IgG1, V domains shown)", "VH": "B3 VH with Q6E, L70I, K74E, T97A", "VL": "B3 VL with S7T, T14S, P15L, E17D, P18Q, Q50K, V88L, Y92F, Q105S", "notes": "Humanised H chain variable region ver.a combined with the mouse GC33 L chain variable region; human IgG1 / κ constant regions; also called H鎖 ver.a / L鎖 マウスGC33"}, "B5": {"name": "GC33マウス−ヒトキメラ抗体 (antibody, V domains shown)", "VH": "QVQLQQSGAELVRPGASVKLSCKASGYTFTDYEMHWVKQTPVHGLKWIGALDPKTGDTAYSQKFKGKATLTADKSSSTAYMELRSLTSEDSAVYYCTRFYSYTYWGQGTLVTVSA", "VL": "B3 VL with S7T, T14S, P15L, E17D, P18Q, Q50K, V88L, Y92F, Q105S", "notes": "Mouse GC33 variable regions on human IgG1 and human κ constant regions (vectors HEFgγ1, HEFgκ); also called キメラGC33抗体; マウスGC33可変領域の抗体(mouse / mouse)"}, "B6": {"name": "GC33 (antibody, V domains shown)", "VH": "B5 VH", "VL": "B3 VL with S7T, T14S, P15L, E17D, P18Q, Q50K, V88L, Y92F, Q105S", "notes": "also called GC33抗体"}, "B7": {"name": "ヒト化GC33(ver.a / ver.a) (antibody, V domains shown)", "VH": "B3 VH with Q6E, L70I, K74E, T97A", "VL": "B3 VL", "notes": "Human IgG1 / human κ constant regions (HEFgγ1, HEFgκ); also called GC33 VH ver.a / GC33 VL ver.a"}, "B8": {"name": "M13B3 (antibody, V domains shown)", "VH": "EVHLVESGGGLVKPGGSLKLSCAASGFTFSNYAMSWVRQTPEKRLEWVAAINNNGDDTYYLDTVKDRFTISRDNAKNTLYLQMSSLRSEDTALYYCVRQGGAYWGQGTLVTVSA", "VL": "not shown", "notes": "Mouse hybridoma antibody"}, "B9": {"name": "GC199 (antibody, V domains shown)", "VH": "QIQLEQSGPELKKPGETVKISCKASGYIFRDYSMHWVKQAPGKGLKWMGWINTETGEPTYADDFKGRFAFSLETSASTAYLQINNLKNEDTATYFCTSLYWGQGTLVTVSA", "VL": "not shown", "notes": "Mouse hybridoma antibody from GC-3 immunisation; also called GC199抗体"}, "B10": {"name": "M5B9 (antibody, V domains shown)", "VH": "EVQLQQSGTVLARPGASVKMSCKASGYTFTGYWMHWVKQRPGQGLEWIGAIYPGNSDTNYNQKFKGKAKLTAVTSASTAYMELSSLTNEDAAVYHCTRSGDLTGGLAYWGQGTLVTVSA", "VL": "DIVMTQAAFSNPVTLGTSASISCRSSKSLLHSNGITYLYWFLQKPGQSPQLLIYQMSNLASGVPDRFSSSGSGTDFTLRISRVEAEDVGVYYCAQNLELPYTFGSGTKLEIK", "notes": "Mouse hybridoma antibody"}, "B11": {"name": "M11F1 (antibody, V domains shown)", "VH": "QVTLKESGPGILQPSQTLSLTCSFSGFSLSIYGMGVGWIRQPSGKGLEWLANIWWNDDKYYNSALKSRLTISKDTSNNQVFLKISSVDTADTATYYCAQIGYFYFDYWGQGTTLTVSS", "VL": "DVVMTQTPLSLPVSLGDQASISCRSSQSLVHSNGNTYLHWYLQKPGQSPKLLIYKVSNRFSGVPDRFSGSGSGTDFTLKISRVEAEDLGVYFCSQSTHVPWTFGGGTKLEIK", "notes": "Mouse hybridoma antibody"}, "B12": {"name": "M10D2 (antibody, V domains shown)", "VH": "QVQLQQPGAELVKPGASVKLSCKASGYTFTSYWMHWVKQRPGQGLEWIGEIDPSDSYTYYNQKFRGKATLTVDKSSNTAYMQLSSLTSEDSAVYYCSRSNLGDGHYRFPAFPYWGQGTLVTVSA", "VL": "DIVLTQSPATLSVTPGDRVSLSCRASHSISNFLHWYPQKSHESPRLLIKYASQSISGIPSRFSGNGSGTDFTLSINSVETEDFGMYFCQQSNIWSLTFGAGTKLELK", "notes": "Mouse hybridoma antibody"}, "B13": {"name": "M6B1 (antibody, V domains shown)", "VH": "EVQLVESGGDLVKPGGSLKLSCAASGFTFSSYAMSWVRQTPEKRLEWVAAINSNGGTTYYPDTMKDRFTISRDNAKNTLYLQMSSLRSEDSALYYCTRHNGGYENYGWFAYWGQGTLVTVSA", "VL": "DIQMTQSPSSLSASLGGKVTITCKASQDINKNIIWYQHKPGKGPRLLIWYTSTLQPGIPSRFSGSGSGRDYSFSISNLEPEDIATYYCLQYDNLPRTFGGGTKLEIK", "notes": "Mouse hybridoma antibody"}}, "key": {"GC-1 [1]": {"target": "T1, GC-1 (human, UniProt P51654 495-563)", "T1 construct": "Made in E. coli DH5α, purified on glutathione resin; also called GST融合タンパク質GC-1(Ser495からLys563); not shown: GST (glutathione S-transferase) of vector pGEX-4T-3 (Amersham), N-terminal to the GPC3 piece", "T1 sequence": "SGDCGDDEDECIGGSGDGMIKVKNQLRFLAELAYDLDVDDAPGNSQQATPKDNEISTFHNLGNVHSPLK", "experiment": "Western blot of GST fusion proteins"}, "GC-2 [2]": {"target": "T2, GC-2 (human, UniProt P51654 510-563)", "T2 construct": "also called GST融合タンパク質GC-2(Gly510からLys563); not shown: GST (glutathione S-transferase) of vector pGEX-4T-3 (Amersham), N-terminal to the GPC3 piece", "T2 sequence": "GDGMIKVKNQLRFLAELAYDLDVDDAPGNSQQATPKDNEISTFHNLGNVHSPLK", "experiment": "Western blot of GST fusion proteins"}, "GC-3 [3]": {"target": "T3, GC-3 (human, UniProt P51654 524-563)", "T3 construct": "also called GST融合タンパク質GC-3(Ala524からLys563); not shown: GST (glutathione S-transferase) of vector pGEX-4T-3 (Amersham), N-terminal to the GPC3 piece", "T3 chain": "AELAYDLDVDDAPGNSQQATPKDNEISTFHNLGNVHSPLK", "experiment": "Western blot of GST fusion proteins"}, "可溶型GPC3コアタンパク質 [4]": {"target": "T4, 可溶型GPC3コアタンパク質 (human, UniProt P51654 25-563)", "T4 construct": "also called 可溶型GPC3コア蛋白質; soluble GPC3 core protein; not shown: C-terminal His tag", "experiment": "ELISA screening on immobilised soluble GPC3 core protein"}, "可溶型GPC3コアタンパク質 [5]": {"target": "T4, 可溶型GPC3コアタンパク質", "experiment": "ELISA, purified antibody from 10 μg/mL in 3-fold steps on immobilised soluble GPC3 core protein"}, "可溶型GPC3コアタンパク質 [6]": {"target": "T4, 可溶型GPC3コアタンパク質", "experiment": "ELISA on GPC3 (Fig. 15)"}, "可溶型GPC3コアタンパク質 [7]": {"target": "T4, 可溶型GPC3コアタンパク質", "experiment": "ELISA on GPC3 (Fig. 15); reference antibody of the comparison"}, "可溶型GPC3コアタンパク質 [8]": {"target": "T4, 可溶型GPC3コアタンパク質", "experiment": "ELISA screening of hybridoma supernatant on immobilised soluble GPC3 core protein"}, "GC-1 [9]": {"target": "T1, GC-1", "experiment": "Western blot of GST fusion proteins, reducing SDS-PAGE"}, "GC-2 [10]": {"target": "T2, GC-2", "experiment": "Western blot of GST fusion proteins, reducing SDS-PAGE"}, "GC-3 [11]": {"target": "T3, GC-3", "experiment": "Western blot of GST fusion proteins, reducing SDS-PAGE"}}, "note": "Numbering of substitutions follows the chain as printed."}
{"binder": "B1", "values": [{"measurement": "binding result", "setting": "GC-1 [1]", "result": "binds"}, {"measurement": "binding result", "setting": "GC-2 [2]", "result": "binds"}, {"measurement": "binding result", "setting": "GC-3 [3]", "result": "binds"}, {"measurement": "binding result", "setting": "可溶型GPC3コアタンパク質 [4]", "result": "binds"}]}
{"binder": "B2", "values": [{"measurement": "binding result", "setting": "可溶型GPC3コアタンパク質 [5]", "result": "binds"}]}
{"binder": "B3", "values": [{"measurement": "binding result", "setting": "可溶型GPC3コアタンパク質 [6]", "result": "binds"}]}
{"binder": "B4", "values": [{"measurement": "binding result", "setting": "可溶型GPC3コアタンパク質 [6]", "result": "binds"}]}
{"binder": "B5", "values": [{"measurement": "binding result", "setting": "可溶型GPC3コアタンパク質 [7]", "result": "binds"}]}
{"binder": "B6", "values": [{"measurement": "binding result", "setting": "GC-1 [1]", "result": "binds"}, {"measurement": "binding result", "setting": "GC-2 [2]", "result": "binds"}, {"measurement": "binding result", "setting": "GC-3 [3]", "result": "binds"}, {"measurement": "binding result", "setting": "可溶型GPC3コアタンパク質 [4]", "result": "binds"}]}
{"binder": "B7", "values": [{"measurement": "binding result", "setting": "可溶型GPC3コアタンパク質 [6]", "result": "binds"}]}
{"binder": "B8", "values": [{"measurement": "binding result", "setting": "可溶型GPC3コアタンパク質 [5]", "result": "binds"}]}
{"binder": "B9", "values": [{"measurement": "binding result", "setting": "GC-1 [1]", "result": "binds"}, {"measurement": "binding result", "setting": "GC-2 [2]", "result": "binds"}, {"measurement": "binding result", "setting": "GC-3 [3]", "result": "binds"}, {"measurement": "binding result", "setting": "可溶型GPC3コアタンパク質 [4]", "result": "binds"}]}
{"binder": "B10", "values": [{"measurement": "binding result", "setting": "可溶型GPC3コアタンパク質 [8]", "result": "binds"}]}
{"binder": "B11", "values": [{"measurement": "binding result", "setting": "GC-1 [9]", "result": "binds"}, {"measurement": "binding result", "setting": "GC-2 [10]", "result": "binds"}, {"measurement": "binding result", "setting": "GC-3 [11]", "result": "binds"}, {"measurement": "binding result", "setting": "可溶型GPC3コアタンパク質 [5]", "result": "binds"}]}
{"binder": "B12", "values": [{"measurement": "binding result", "setting": "可溶型GPC3コアタンパク質 [8]", "result": "binds"}]}
{"binder": "B13", "values": [{"measurement": "binding result", "setting": "可溶型GPC3コアタンパク質 [5]", "result": "binds"}]}
